PMC11606652

Biological target: Kluyveromyces marxianus GCN2 histidyl-tRNA synthetase-like (HRSL) domain, residues 996-1,511 (Kluyveromyces marxianus)
Assay: SEC

Substance: Kluyveromyces marxianus GCN2 histidyl-tRNA synthetase-like (HRSL) domain, residues 996-1,511 (domain or fragment)
- stoichiometry N: 2
